Reference: the supplement of paper PMC7125110
± gives the standard error. For some assays here: Fewer inactive variants are shown than the library holds.

B1: glmS ribozyme (parent)
chain: AUAAAAGCGCCAGAACUACAGAAAUGUAGUUGACGAGGAGGAGGUUUAUCGAAUUUUCGGCGGAUGCCUCCAAA

Assays:
Settings in all cases: with glucosamine-6-phosphate
glucosamine-6-phosphate [1] = variants of: B1; assay: kcat; higher = faster cleavage; RNA array
In short: (§1)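 kobs was derived by fitting per-tile medians to one- or two-exponential decays after normalising signals to baseline and to non-cleaving reference variants. Those signals came from barcoded ribozyme variants transcribed in situ by E. coli RNA polymerase on sequenced MiSeq chips, followed through a hybridised Cy3 probe at 37 °C and imaged over ~14 h. Glucosamine-6-phosphate (40 μM to 10 mM) in HEPES/KCl/Mg(OAc)2 buffer was flowed in. Weighted Michaelis–Menten fits across concentrations then gave kcat and KM.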

glucosamine-6-phosphate [2] = variants of: B1; assay: KM; higher = weaker cofactor use; RNA array
In short: as §1

glucosamine-6-phosphate [3] = variants of: B1; assay: self-cleavage kobs at 2500 uM GlcN6P; higher = faster cleavage; RNA array
In short: as §1

glucosamine-6-phosphate [4] = variants of: B1; assay: self-cleavage kobs at 10000 uM GlcN6P; higher = faster cleavage; RNA array
In short: as §1

glucosamine-6-phosphate [5] = variants of: B1; assay: self-cleavage kobs at 160 uM GlcN6P; higher = faster cleavage; RNA array
In short: as §1

glucosamine-6-phosphate [6] = variants of: B1; assay: self-cleavage kobs at 640 uM GlcN6P; higher = faster cleavage; RNA array
In short: as §1

glucosamine-6-phosphate [7] = variants of: B1; assay: self-cleavage kobs at 40 uM GlcN6P; higher = faster cleavage; RNA array
In short: as §1

Variant | kcat (glucosamine-6-phosphate [1]) [s⁻¹] | KM (glucosamine-6-phosphate [2]) [µM] | self-cleavage kobs at 2500 uM GlcN6P (glucosamine-6-phosphate [3]) [s⁻¹] | self-cleavage kobs at 10000 uM GlcN6P (glucosamine-6-phosphate [4]) [s⁻¹] | self-cleavage kobs at 160 uM GlcN6P (glucosamine-6-phosphate [5]) [s⁻¹] | self-cleavage kobs at 640 uM GlcN6P (glucosamine-6-phosphate [6]) [s⁻¹] | self-cleavage kobs at 40 uM GlcN6P (glucosamine-6-phosphate [7]) [s⁻¹]
G7A A14G | 9.79e-05 ± 3.9e-06 | 3550 ± 470 | 3.92e-05 ± 1.5e-05 | 7.23e-05 ± 6.8e-06 | – | – | –
A6G U55A | 0.00056 ± 6.3e-05 | 1630 ± 370 | 0.000388 ± 4.1e-05 | 0.000463 ± 4.3e-05 | 5.94e-05 ± 1.2e-05 | 0.000143 ± 1.7e-05 | –
A6U C67U | 8.67e-05 ± 4.7e-06 | 565 ± 160 | 8.14e-05 ± 1.1e-05 | 8.01e-05 ± 6.2e-06 | – | 4.42e-05 ± 8.6e-06 | –
A6U C67G | 1.15e-05 ± 1.2e-06 | – | – | – | – | – | –
A6G A64G | 1.81e-05 ± 5.8e-06 | – | – | – | – | – | < 1e-05
G7A U55A | 8.93e-05 ± 9.4e-06 | – | – | – | – | – | –
A6U C68G | 1.22e-05 ± 3e-06 | – | – | – | – | – | –
A6U C68U | 8.73e-05 ± 5.1e-06 | 491 ± 140 | 8.07e-05 ± 9e-06 | 8e-05 ± 7.3e-06 | – | 4.75e-05 ± 8.3e-06 | –
A6U G29U | 5.83e-05 ± 3.7e-06 | 5560 ± 690 | – | 3.74e-05 ± 1.7e-05 | – | – | < 1e-05
G7A U69C | < 1e-05 | – | – | – | < 1e-05 | – | –
A6C G29C | < 1e-05 | – | – | – | < 1e-05 | – | –
A6G | 0.00068 ± 9.8e-05 | 2660 ± 490 | 0.000467 ± 4.5e-05 | 0.000533 ± 2.4e-05 | 4.17e-05 ± 1.6e-06 | 0.00013 ± 2.3e-06 | < 1e-05
A6U | 0.000447 ± 1.4e-05 | 2740 ± 150 | 0.00022 ± 4e-06 | 0.000346 ± 6.3e-06 | 2.53e-05 ± 2.3e-06 | 8.33e-05 ± 1.6e-06 | –
A6C | 0.000141 ± 4.6e-06 | 2100 ± 180 | 7.95e-05 ± 1.5e-06 | 0.000115 ± 1.8e-06 | < 1e-05 | 3.13e-05 ± 1.1e-06 | –
C8A G37C | < 1e-05 | – | – | – | < 1e-05 | < 1e-05 | –
G7U A14U G29A G37U C61G U69C | 0.000491 ± 3.7e-05 | 143 ± 19 | 0.000446 ± 0.00019 | – | 0.000282 ± 7.4e-05 | 0.000389 ± 0.00014 | 0.000105 ± 2.3e-05
A6G G32A | < 1e-05 | – | – | – | – | – | < 1e-05
A6U G37U | < 1e-05 | – | < 1e-05 | – | < 1e-05 | – | –
C8A G35U | < 1e-05 | – | < 1e-05 | < 1e-05 | – | – | –
A6C A14U | 1.09e-05 ± 1.1e-06 | – | – | – | – | – | –
A6C A14C | 1.13e-05 ± 5.2e-07 | 5840 ± 600 | – | – | – | – | –

Variant | kcat (glucosamine-6-phosphate [1]) [s⁻¹] | KM (glucosamine-6-phosphate [2]) [µM] | self-cleavage kobs at 2500 uM GlcN6P (glucosamine-6-phosphate [3]) [s⁻¹] | self-cleavage kobs at 10000 uM GlcN6P (glucosamine-6-phosphate [4]) [s⁻¹] | self-cleavage kobs at 160 uM GlcN6P (glucosamine-6-phosphate [5]) [s⁻¹] | self-cleavage kobs at 640 uM GlcN6P (glucosamine-6-phosphate [6]) [s⁻¹] | self-cleavage kobs at 40 uM GlcN6P (glucosamine-6-phosphate [7]) [s⁻¹]
A6G U56A | 0.000242 ± 1.2e-05 | 2780 ± 290 | 0.000114 ± 2.4e-05 | 0.00019 ± 3.6e-05 | – | 4.69e-05 ± 1.4e-05 | –
A6G U56G | 0.000188 ± 3.3e-05 | 1150 ± 540 | 0.000107 ± 1.5e-05 | 0.000191 ± 2.3e-05 | – | 7.97e-05 ± 1.2e-05 | –
G7A C68U | 2.24e-05 ± 5.5e-06 | – | – | – | – | – | –
C8U U31A | < 1e-05 | – | – | – | – | < 1e-05 | –
G7A G62U | < 1e-05 | – | – | < 1e-05 | – | < 1e-05 | < 1e-05
A6G G29U | 8.41e-05 ± 9.3e-06 | 3850 ± 1100 | 3.54e-05 ± 1e-05 | 6.03e-05 ± 9e-06 | – | – | –
C8U C61A | < 1e-05 | – | – | – | – | – | –
A6G U54C | 0.000547 ± 9.2e-05 | 2590 ± 710 | 0.000351 ± 7.7e-05 | 0.000427 ± 5.3e-05 | 4.65e-05 ± 1.2e-05 | 0.0001 ± 1.3e-05 | –
A6C U54A | 0.000158 ± 2.8e-05 | 6600 ± 2300 | 4.87e-05 ± 1.5e-05 | 9.38e-05 ± 1.7e-05 | – | – | –
A6G A53G | 0.000509 ± 6.7e-05 | 2390 ± 600 | 0.000306 ± 4.1e-05 | 0.000395 ± 4.4e-05 | 3.62e-05 ± 1.3e-05 | 9.71e-05 ± 1.5e-05 | –
A6C C16G | 1.5e-05 ± 3.9e-07 | 9790 ± 480 | – | – | < 1e-05 | < 1e-05 | < 1e-05
A6G C11A | 2.52e-05 ± 7.7e-06 | – | – | – | – | – | –
A6G C11U | 2.61e-05 ± 3.3e-06 | – | 2.57e-05 ± 1.2e-05 | 2.38e-05 ± 7.5e-06 | < 1e-05 | – | < 1e-05
A6G U55A C68G | 2.16e-05 ± 2.8e-06 | – | – | – | – | – | –
A6U U46A | 0.000115 ± 1.6e-05 | – | – | – | – | – | –
A6U U46G | 0.000103 ± 5.5e-06 | 7260 ± 730 | 2.66e-05 ± 1.1e-05 | 5.95e-05 ± 1.5e-05 | – | – | –
G7U C70G | 0.000479 ± 0.00015 | – | – | – | 0.000844 ± 0.0002 | 0.0004 ± 0.00014 | 0.000382 ± 0.00012
G7A U54C | 1.94e-05 ± 3.6e-06 | – | – | – | – | – | –
C8U C34U G35U C70A | < 1e-05 | – | – | – | – | – | < 1e-05
A6G C10U U56A | < 1e-05 | – | – | – | – | < 1e-05 | < 1e-05
